Substitutions are numbered along the chain they refer to.

Sequences and labels used below:
B1: P54CR4-31 (designed binder, not shown: small tags and cut ends)
chain: LPAPKNLVVSEVTEDSLRLSWTAPDAAFDSFLIQYQESEKVGEAINLTVPGSERSYDLTGLKPGTEYTVSIYGVLGSYVFEHDVMLPLSAEFTT
B2: P53A1R5-17 (designed binder, not shown: small tags and cut ends)
chain: LPAPKNLVVSEVTEDSLRLSWADPHGFYDSFLIQYQESEKVGEAINLTVPGSERSYDLTGLKPGTEYTVSIYGVHNVYKDTNMRGLPLSAEFTT
B3: P54AR4-48 (designed binder, not shown: small tags and cut ends)
chain: B2 chain with A22D, H25R, D29E
B4: P54AR4-83 (designed binder, not shown: small tags and cut ends)
chain: B2 chain with A22D, H25W, G26A, D29E
B5: P54AR4-17 (designed binder, not shown: small tags and cut ends)
chain: B2 chain with A22T, D23Y, P24D, H25R, G26D, F27G
B6: P54AR4-73 (designed binder, not shown: small tags and cut ends)
chain: B2 chain with A22T, D23W, H25Y, G26A, F27D, Y28L
notes: also called P54AR4-37
B7: P54AR4-74 (designed binder, not shown: small tags and cut ends)
chain: B2 chain with A22G, D23Y, P24N, H25G, G26D, F27H, Y28F
B8: P54AR4-81 (designed binder, not shown: small tags and cut ends)
chain: LPAPKNLVVSEVTEDSLRLSWDYDLGVYFDSFLIQYQESEKVGEAINLTVPGSERSYDLTGLKPGTEYTVSIYGVHNVYKDTNMRGLPLSAEFTT
B9: ECB108 (designed binder, not shown: small tags and cut ends)
chain: MLPAPKNLVVSEVTEDSARLSWDDPHAFYESFLIQYQESEKVGEAIVLTVPGSERSYDLTGLKPGTEYTVSIYGVHNVYKDTNIRGLPLSAIFTTAPAPAPAPAPLPAPKNLVVSRVTEDSARLSWTAPDAAFDSFWIRYFEFVSKGDAIVLTVPGSERSYDLTGLKPGTEYVVNILGVKGGSISPPLSAIFTT
notes: Bispecific: P54AR4-83v23, (AP)5, P114AR9P122-A7v2
B10: ECB109 (designed binder, not shown: small tags and cut ends)
chain: B9 chain with V144L, S145G, K146S, D148E, G178S
notes: Bispecific: P54AR4-83v23, (AP)5, P114AR7P95-C5v2
B11: ECB147v3-PEG24 (designed binder)
chain: MLPAPKNLVVSEVTEDSARLSWDDPWAFYESFLIQYQESEKVGEAIVLTVPGSERSYDLTGLCPGTEYTVSIYGVHNVYKDTNMRGLPLSAIFTTAPCPAPAPAPLPAPKNLVVSRVTEDSARLSWTAPDAAFDSFWIRYFEFLGSGEAIVLTVPGSERSYDLTGLCPGTEYVVNIMSVKGGSISPPLSAIFTTAPCPAPAPAPLAEAKVLANRELDKYGVSDYYKNLINNAKTVEGVKALLDEILAALP
modifications: PEG24-maleimide on the engineered cysteines
B12: ECB147v7-PEG24 (designed binder)
chain: B11 chain with C63K, C167K
modifications: PEG24-maleimide on the engineered cysteines
B13: ECB147v6-PEG24 (designed binder)
chain: B11 chain with C98A, C167K, C197A
modifications: PEG24-maleimide on the engineered cysteine
B14: ECB147v5-PEG24 (designed binder)
chain: B11 chain with C98A, C197A
modifications: PEG24-maleimide on the engineered cysteines

In the first assay the target is T1, human EGFR on cells (A431, NCI-H292, NCI-H322, NCI-H441) (human, UniProt P00533 25-1210). The assay can be described thus: cell-based or functional assay.
Consider B1, for which the “NCI-H292 Growth IC50” value came out at 1150 nM, the “NCI-H322 Growth IC50” value is over 3070 nM and the “Phospho-EGFR IC50 (A431 cells)” value was found to be 179 nM.

For B2, the “NCI-H292 Growth IC50” value was 86 nM, the “NCI-H322 Growth IC50” value was determined as 65 nM and the “Phospho-EGFR IC50 (A431 cells)” value is over 2500 nM.

B3: the “Phospho-EGFR IC50 (A431 cells)” value came to 170 nM.

Regarding B4, the “NCI-H292 Growth IC50” value was 5.9 nM, the “NCI-H322 Growth IC50” value is 9.2 nM and the “Phospho-EGFR IC50 (A431 cells)” value stood at 18 nM.

In the case of B5, the “Phospho-EGFR IC50 (A431 cells)” value turned out to be 184 nM.

Regarding B6, the “NCI-H292 Growth IC50” value was 83 nM, the “NCI-H322 Growth IC50” value came to 73 nM and the “Phospho-EGFR IC50 (A431 cells)” value came to 141 nM.

Another assay concerns the target T1, human EGFR on cells (A431, NCI-H292, …). The assay can be described thus: A431 cell binding, anti-His-Alexa488 fluorescence. The protocol:
A431 cells were plated at 5,000/well in opaque black 96-well plates and allowed to attach overnight at 37° C., in a humidified 5% CO₂ atmosphere. […] Supernatant was removed and cells were washed 3 times with 150 μL/well of FACS stain buffer. Cells were incubated with 50 μL/well of anti-penta His-Alexa488 antibody conjugate (Qiagen) diluted 1:100 in FACS stain buffer for 20 minutes at room temperature. Cells were washed 3 times with 150 μL/well of FACS stain buffer, after which wells were filled with 100 μL of FACS stain buffer and read for fluorescence at 488 nm using an Acumen eX3 reader. Data were plotted as raw fluorescence signal against the logarithm of the FN3 domain molar concentration and fitted to a sigmoidal dose-response curve with variable slope using GraphPad Prism 4 (GraphPad Software) to calculate EC₅₀ values.
For B2, a half-maximal response (EC50) required 4 nM.

As for B3, the EC50 worked out at 12 nM.

As to B7, the EC50 came out at 77 nM.

Regarding B4, the response was half-maximal at 2.2 nM (EC50).

The molecule B5 yielded an EC50 of 16 nM.

For B6, a half-maximal effect (EC50) was put at 9.4 nM.

As for B8, it took 84 nM to reach a half-maximal effect (EC50).

The next assay shares this target. The assay can be described thus: A431 cell competition with biotinylated EGF. As for the experimental part: A431 cells were plated at 5,000/well in opaque black 96-well plates and allowed to attach overnight at 37° C., in a humidified 5% CO₂ atmosphere. […] Cells were washed 3 times with 150 μL/well of FACS stain buffer. Cells were incubated with 50 μL/well of streptavidin-phycoerythrin conjugate (Invitrogen) diluted 1:100 in FACS stain buffer for 20 minutes at room temperature. Cells were washed 3 times with 150 μL/well of FACS stain buffer, after which wells were filled with 100 μL of FACS stain buffer and read for fluorescence at 600 nm using an Acumen eX3 reader. Data were plotted as the raw fluorescence signal against the logarithm of FN3 domain molar concentration and fitted to a sigmoidal dose-response curve with variable slope using GraphPad Prism 4 (GraphPad Software) to calculate IC₅₀ values.
With B1, the IC50 came out at 55 nM.

The molecule B2 gave an IC50 of 9.8 nM.

Molecule B3 showed an IC50 of 9.8 nM. This lies in the single-digit nanomolar range.

Take B4: the IC50 stood at 1.8 nM. Against the preceding molecule, the IC50 is about 5.4-fold lower.

For the molecule B5, the IC50 turned out to be 21 nM.

With B6, the concentration for half-maximal inhibition (IC50) stood at 4.6 nM.

In the case of B8, the IC50 turned out to be 121 nM.

A further assay has the same target. The assay can be described thus: cell-based or functional assay. This is another data set of the same source.
For B9, the “pEGFR inhibition in H292 cells IC50” value turned out to be 814 nM.

In the case of B10, the “pEGFR inhibition in H292 cells IC50” value worked out at 432 nM.

For another assay, the target named is T2, human c-Met on cells (NCI-H441, NCI-H292, U87-MG) (human, UniProt P08581 25-1390). The assay can be described thus: cell-based or functional assay.
Consider B9, for which the “pMet inhibition in H441 cells IC50” value is 126 nM.

On to B10, for which the “pMet inhibition in H441 cells IC50” value is 26 nM.

A further assay concerns the target T3, recombinant c-Met extracellular domain (human, UniProt P08581 16-932).
T3 construct: Construct used for SPR is not described further (may be the Fc chimera, as the protocol captures on anti-human Fc)
The assay is described as follows: SPR (ProteOn) per Example 3. An excerpt:
(§1) Select EGFR/c-Met molecules were characterized for their affinity to both EGFR and c-Met, their ability to inhibit EGFR and c-Met autophosphorylation, and their effect on proliferation of HGF cells. Binding affinity of the bispecific EGFR/c-Met molecules to recombinant EGFR and/or c-Met extracellular domain was further by surface Plasmon resonance methods using a Proteon Instrument (BioRad) according to protocol described in Example 3.
Consider B9, for which the Kd was 25.5 nM.

B10: the Kd was found to be 2.1 nM.

Another assay has as its target T4, recombinant human extracellular domain of EGFR fused to an IgG1 Fc (human, UniProt P00533 25-645).
T4 construct: Bought (R&D Systems); captured on anti-human Fc IgG for SPR; also called EGFR-Fc
The assay is described as follows: SPR (ProteOn) per Example 3.
Excerpt: as §1
With B9, the Kd is 15.3 nM.

On to B10, for which the Kd came to 17.3 nM.

A further assay addresses T2, human c-Met on cells (NCI-H441, …). The assay is described as follows: cell-based or functional assay. The source holds these as a separate data set.
Regarding B11, the “IC50 of inhibition of HGF-stimulated c-Met phosphorylation, NCI-H292 cells” value amounted to 0.5 nM.

B12: the “IC50 of inhibition of HGF-stimulated c-Met phosphorylation, NCI-H292 cells” value was 0.5 nM.

For B13, the “IC50 of inhibition of HGF-stimulated c-Met phosphorylation, NCI-H292 cells” value was determined as 0.4 nM.

Consider B14, for which the “IC50 of inhibition of HGF-stimulated c-Met phosphorylation, NCI-H292 cells” value came out at 0.4 nM.

Another assay addresses T1, human EGFR on cells (A431, NCI-H292, …). The assay is described as follows: cell-based or functional assay. This is another data set of the same source.
As for B11, the “IC50 of inhibition of EGF-stimulated EGFR phosphorylation, NCI-H292 cells” value was 1.6 nM.

For the molecule B12, the “IC50 of inhibition of EGF-stimulated EGFR phosphorylation, NCI-H292 cells” value was 1.4 nM.

Regarding B13, the “IC50 of inhibition of EGF-stimulated EGFR phosphorylation, NCI-H292 cells” value came to 1.4 nM.

For B14, the “IC50 of inhibition of EGF-stimulated EGFR phosphorylation, NCI-H292 cells” value was 0.9 nM.

For another assay, the target named is T4, recombinant human extracellular domain …. The assay is described as follows: SPR (ProteOn), EGFR-Fc captured on anti-human Fc IgG. The protocol: Select EGFR-binding FN3 domains were screened to identify those with slow off-rates (koff) in binding to EGFR-Fc on a ProteOn XPR-36 instrument (Bio-Rad) to facilitate selection of high affinity binders. Goat anti-human Fc IgG (R&D systems), at a concentration of 5 μg/mL, was directly immobilized via amine coupling (at pH 5.0) on all 6 ligand channels in horizontal orientation on the chip with a flow rate of 30 μL/min in PBS containing 0.005% Tween-20. The immobilization densities averaged about 1500 Response Units (RU) with less than 5% variation among different channels. EGFR-Fc was captured on the anti-human Fc IgG surface to a density around 600 RU in vertical ligand orientation. All tested FN3 domains were normalized to a concentration of 1 μM and tested for their binding in horizontal orientation. All 6 analyte channels were used for the FN3 domains to maximize screening throughput. The dissociation phase was monitored for 10 minutes at a flow rate of 100 μL/min. The inter-spot binding signals were used as references to monitor non-specific binding between analytes and the immobilized IgG surface, and were subtracted from all binding responses. The processed binding data were locally fit to a 1:1 simple Langmuir binding model to extract the koff for each FN3 domain binding to captured EGFR-Fc.
Binding affinity of selected EGFR-binding FN3 domains to recombinant EGFR extracellular domain was further characterized by surface Plasmon resonance methods using a Proteon Instrument (BioRad). The assay set-up (chip preparation, EGFR-Fc capture) was similar to that described above for off-rate analysis. Selected EGFR binding FN3 domains were tested at 1 μM concentration in 3-fold dilution series in the horizontal orientation. A buffer sample was also injected to monitor the baseline stability.
With B1, the Kd was 0.383 nM.

On to B2, for which the Kd worked out at 1.89 nM.

As for B3, the Kd is 7.78 nM.

Regarding B4, the Kd came to 0.255 nM.

As for B5, the Kd was 9.62 nM.

On to B6, for which the Kd is 0.197 nM.

The values above are taken from patent publication US20210301025A1 (published 2021).
